Laboratory results taken from patent WO2015103549A1 (dated 2015).

Columns and labels:
HIV YU2 gp120 monomer = biological target: T1, HIV YU2 gp120 monomer (HIV-1, UniProt P35961 32-498); test: ELISA, antigen coated at 2 ug/ml
T1 construct: domain: gp120

[1] = biological target: T2, HIV YU2 gp160 extracellular domain (gp140) foldon trimer (HIV-1, UniProt P35961 32-671); test: ELISA, antigen coated at 2 ug/ml
T2 construct: extracellular domain; also called HIVYU2 gp140 foldon trimer; not shown: foldon trimerisation domain

HIV YU2 gp41 monomer = biological target: T3, HIV YU2 gp41 monomer (HIV-1, UniProt P35961 499-671); test: ELISA, antigen coated at 2 ug/ml
T3 construct: domain: gp41

BG505 SOSIP.664 trimer = biological target: T4, BG505 SOSIP.664 trimer (HIV-1); test: SPR, trimer immobilized by anti-histidine capture, Biacore 3000, 25 C (FIG. 2D)
T4 construct: domain: gp120;domain: gp41 ectodomain; also called soluble BG505 SOSIP

Jo1 antigen = biological target: T5, Jo1 antigen (UniProt P12081 2-509); test: Luminex AtheNA Multi-Lyte ANA test
T5 sequence (looked up): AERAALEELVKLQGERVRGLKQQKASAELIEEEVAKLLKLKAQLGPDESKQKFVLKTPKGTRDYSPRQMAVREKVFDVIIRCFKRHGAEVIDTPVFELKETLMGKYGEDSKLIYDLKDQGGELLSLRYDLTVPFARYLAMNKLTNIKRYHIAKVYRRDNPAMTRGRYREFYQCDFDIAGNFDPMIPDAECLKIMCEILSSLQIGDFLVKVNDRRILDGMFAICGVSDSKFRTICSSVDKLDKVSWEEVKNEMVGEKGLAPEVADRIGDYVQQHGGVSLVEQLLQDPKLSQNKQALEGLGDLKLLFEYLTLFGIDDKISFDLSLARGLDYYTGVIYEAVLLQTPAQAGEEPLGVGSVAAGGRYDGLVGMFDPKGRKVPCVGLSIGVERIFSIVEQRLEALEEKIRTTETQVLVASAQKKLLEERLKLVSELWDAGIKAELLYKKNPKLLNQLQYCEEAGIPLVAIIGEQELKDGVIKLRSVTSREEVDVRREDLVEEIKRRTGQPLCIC

scleroderma 70 = biological target: T6, scleroderma 70 (UniProt P11387 2-765); test: Luminex AtheNA Multi-Lyte ANA test
T6 construct: also called Scl 70
T6 sequence (looked up): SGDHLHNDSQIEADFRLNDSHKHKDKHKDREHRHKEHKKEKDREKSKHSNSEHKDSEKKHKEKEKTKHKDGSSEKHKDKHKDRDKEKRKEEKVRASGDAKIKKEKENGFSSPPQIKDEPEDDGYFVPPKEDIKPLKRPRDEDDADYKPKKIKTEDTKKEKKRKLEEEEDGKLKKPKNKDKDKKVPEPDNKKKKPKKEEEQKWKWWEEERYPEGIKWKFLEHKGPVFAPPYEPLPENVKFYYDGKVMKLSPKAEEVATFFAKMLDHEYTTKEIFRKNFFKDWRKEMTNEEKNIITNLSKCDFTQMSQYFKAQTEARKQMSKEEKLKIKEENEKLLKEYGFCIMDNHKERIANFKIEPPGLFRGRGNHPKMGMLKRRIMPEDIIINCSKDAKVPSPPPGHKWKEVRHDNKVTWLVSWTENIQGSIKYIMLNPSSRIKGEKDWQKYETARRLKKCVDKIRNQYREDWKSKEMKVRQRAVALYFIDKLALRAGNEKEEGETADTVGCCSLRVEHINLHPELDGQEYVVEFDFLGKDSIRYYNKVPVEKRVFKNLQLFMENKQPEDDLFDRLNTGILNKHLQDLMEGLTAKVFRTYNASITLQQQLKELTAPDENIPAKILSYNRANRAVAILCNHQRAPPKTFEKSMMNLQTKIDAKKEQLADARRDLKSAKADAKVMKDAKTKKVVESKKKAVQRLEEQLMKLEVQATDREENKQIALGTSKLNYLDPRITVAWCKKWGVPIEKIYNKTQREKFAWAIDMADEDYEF

centromere B = biological target: T7, centromere B (UniProt P07199 2-599); test: Luminex AtheNA Multi-Lyte ANA test
T7 construct: also called CentrB
T7 sequence (looked up): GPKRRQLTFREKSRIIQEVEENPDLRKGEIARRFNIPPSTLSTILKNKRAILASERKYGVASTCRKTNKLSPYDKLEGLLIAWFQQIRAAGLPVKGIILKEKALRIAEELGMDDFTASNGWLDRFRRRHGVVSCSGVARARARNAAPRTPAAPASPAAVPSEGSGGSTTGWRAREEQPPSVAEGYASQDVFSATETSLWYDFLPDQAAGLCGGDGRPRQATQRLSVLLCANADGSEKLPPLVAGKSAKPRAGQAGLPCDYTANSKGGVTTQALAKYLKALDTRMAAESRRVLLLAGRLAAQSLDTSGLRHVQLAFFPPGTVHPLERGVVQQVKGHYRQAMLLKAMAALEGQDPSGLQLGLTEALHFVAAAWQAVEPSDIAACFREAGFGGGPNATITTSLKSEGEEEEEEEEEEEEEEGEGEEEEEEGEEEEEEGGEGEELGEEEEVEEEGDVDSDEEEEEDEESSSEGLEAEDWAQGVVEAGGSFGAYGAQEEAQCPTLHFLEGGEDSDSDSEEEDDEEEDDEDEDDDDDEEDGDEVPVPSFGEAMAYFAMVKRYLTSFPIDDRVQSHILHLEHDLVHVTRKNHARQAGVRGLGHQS

[2] = biological target: T8, Sjogren syndrome antigen B (UniProt P05455 1-408); test: Luminex AtheNA Multi-Lyte ANA test
T8 construct: also called SSB; SS-B/La
T8 sequence (looked up): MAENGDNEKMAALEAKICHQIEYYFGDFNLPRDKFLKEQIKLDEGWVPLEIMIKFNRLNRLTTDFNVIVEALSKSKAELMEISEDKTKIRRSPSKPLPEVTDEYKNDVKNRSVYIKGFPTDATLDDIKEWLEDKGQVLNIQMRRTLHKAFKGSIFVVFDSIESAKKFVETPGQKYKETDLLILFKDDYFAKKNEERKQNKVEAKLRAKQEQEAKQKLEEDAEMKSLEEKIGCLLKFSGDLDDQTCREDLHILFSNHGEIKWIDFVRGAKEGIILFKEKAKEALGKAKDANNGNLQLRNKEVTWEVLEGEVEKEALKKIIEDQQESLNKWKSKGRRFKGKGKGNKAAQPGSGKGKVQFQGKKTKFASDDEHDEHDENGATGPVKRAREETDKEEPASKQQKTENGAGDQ

B1: 35022 antibody (antibody, V domains shown)
VH: QGQLVQSGAELKKPGASVKISCKTSGYRFNFYHINWIRQTAGRGPEWMGWISPYSGDKNLAPAFQDRVIMTTDTEVPVTSFTSTGAAYMEIRNLKFDDTGTYFCAKGLLRDGSSTWLPYLWGQGTLLTVSS
VL: QSVLTQSASVSGSLGQSVTISCTGPNSVCCSHKSISWYQWPPGRAPTLIIYEDNERAPGISPRFSGYKSYWSAYLTISDLRPEDETTYYCCSYTHNSGCVFGTGTKVSVL
notes: also called 35022 mAb
binding result (HIV YU2 gp120 monomer): no binding
binding result [1]: no binding
binding result (HIV YU2 gp41 monomer): no binding
Kd (BG505 SOSIP.664 trimer): 5.6 nM
binding result (Jo1 antigen): no binding
binding result (scleroderma 70): no binding
binding result (centromere B): no binding
binding result [2]: no binding
